Where two headings read alike, the source gives them in different places.

In test [1] the target is T1, recombinant human HGF (R&D Systems, Catalog No. 294-HGN-025) (human, UniProt P14210 32-728). Kind of test: cell-based or functional assay.
In test [2] the target is T1, recombinant human HGF (R&D Systems, …). Kind of test: SPR, antibody captured by anti-mouse Ig, HGF injected, 25 C.
Test [3] addresses hHGF-Fc G555E (recombinant hHGF protein containing a glycine to glutamate substitution at position 555) (human). Kind of test: SPR, antibody immobilized, HGF protein injected, 25 C.
Test [4] concerns the target hHGF-Fc C561R (recombinant hHGF protein containing a cysteine to arginine substitution at position 561) (human). The description is as above.
Test [5] has as its target T1, recombinant human HGF (R&D Systems, …). Kind of test: SPR, captured antibody, HGF injected, 25 C. The procedure:
(§1) Mouse anti-human immunoglobulins (Jackson Labs, Catalog No. 209-005) or rabbit anti-mouse immunoglobulins (BIAcore, Catalog No. BR-1005-14) were immobilized on carboxymethylated dextran CM4 sensor chips (BIAcore, Catalog No. BR-1006-68) by amine coupling (BIAcore, Catalog No. BR-1000-50) using a standard coupling protocol according to manufacturer's instructions. […] The analyses were performed at 25° C. and 37° C. using PBS (GIBCO, Catalog No. 14040-133) containing 0.05% surfactant P20 (BIAcore, Catalog No. BR-1000-54), and 2 mg/mL BSA (EMD, Catalog No. 2930) as running buffer.
(§2) The antibodies were captured in an individual flow cell at a flow rate of […]. Injection time was variable for each antibody to yield approximately 20 RU of antibody captured for each cycle. […] The dissociation phase was monitored for 15 or 90 minutes, depending on concentration. The surface of mouse anti-human immunoglobulins sensor chips was then regenerated with 10 mM Glycine-HCl, pH 2.2 (BIAcore, Catalog No. BR-1003-54) injected for 3 minutes at a flow rate of 60 μL/min before another cycle was initiated. The surface of rabbit anti-mouse immunoglobulins sensor chips was regenerated with 10 mM Glycine-HCl, pH 1.7 (BIAcore, Catalog No. BR-1003-54) injected for 3 minutes at a flow rate of 60 μL/min before another cycle was initiated.
(§3) Kinetic parameters were determined using the kinetic function of the BIAevaluation software with reference subtraction.
A general note: Surface plasmon resonance follows binding to a sensor surface in real time, without labels.

Test [6] shares this target. Briefly: cell-based or functional assay. This is another data set of the same source.
The target is the same in test [7]. Kind of test: SPR, captured antibody, HGF injected, 37 C. The procedure: as §1, §2, §3
Test [8] shares this target. Kind of test: competition ELISA (DELFIA): antibody inhibits biotinylated c-Met binding to plate-coated HGF. The procedure:
The plates then were blocked with 200 μL of 5% non-fat dry milk in PBS for 1 hour at room temperature. […] 100 μL of sample per well was transferred to the assay plate and incubated for 2 hours at room temperature. The resulting plates were washed three times with PBS-0.1% Tween 20, and incubated for 1 hour at room temperature with Eu-labeled Streptavidin (Wallac, Catalog No. 1244-360) diluted 1:1000 in DELFIA assay buffer (Wallac, Catalog No. 4002-0010). The resulting plates were washed 3 times with DELFIA wash solution (Wallac, Catalog No. 4010-0010) and incubated with 100 μL/well DELFIA enhancement solution (Wallac #4001-0010) for 15 minutes at room temperature with agitation. The plates were read on Victor³V instrument (Perkin Elmer) using the Europium method. The IC₅₀ values were calculated using Prism.
(An ELISA detects its analyte on a solid surface through an enzyme-linked reagent.)

For test [9] the target is unchanged. Briefly: cell-based or functional assay. This is another data set of the same source.

T1 sequence (P14210 32-728 limits assumed): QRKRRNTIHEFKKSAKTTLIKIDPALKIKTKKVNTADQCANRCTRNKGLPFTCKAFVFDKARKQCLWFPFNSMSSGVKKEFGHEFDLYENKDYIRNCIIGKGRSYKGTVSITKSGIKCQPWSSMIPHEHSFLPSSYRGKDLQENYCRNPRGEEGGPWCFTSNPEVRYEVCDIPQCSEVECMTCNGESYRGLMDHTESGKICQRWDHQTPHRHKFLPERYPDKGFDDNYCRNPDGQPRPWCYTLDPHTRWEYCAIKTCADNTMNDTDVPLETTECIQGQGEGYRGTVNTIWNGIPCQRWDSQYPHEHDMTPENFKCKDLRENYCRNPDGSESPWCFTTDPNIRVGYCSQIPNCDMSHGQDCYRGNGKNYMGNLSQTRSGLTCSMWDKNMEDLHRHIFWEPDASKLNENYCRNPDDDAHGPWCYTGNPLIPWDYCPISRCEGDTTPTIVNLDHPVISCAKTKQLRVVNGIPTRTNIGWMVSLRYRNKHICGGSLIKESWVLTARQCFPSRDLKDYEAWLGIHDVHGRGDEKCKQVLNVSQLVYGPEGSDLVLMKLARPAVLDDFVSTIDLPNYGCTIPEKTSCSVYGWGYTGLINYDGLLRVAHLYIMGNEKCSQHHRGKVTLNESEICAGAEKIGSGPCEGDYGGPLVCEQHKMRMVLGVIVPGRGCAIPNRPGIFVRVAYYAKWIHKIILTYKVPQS
Chain of hHGF-Fc G555E (recombinant hHGF protein containing a glycine to glutamate substitution at position 555) (human) (chain, as listed by the source G555E G555E limits assumed): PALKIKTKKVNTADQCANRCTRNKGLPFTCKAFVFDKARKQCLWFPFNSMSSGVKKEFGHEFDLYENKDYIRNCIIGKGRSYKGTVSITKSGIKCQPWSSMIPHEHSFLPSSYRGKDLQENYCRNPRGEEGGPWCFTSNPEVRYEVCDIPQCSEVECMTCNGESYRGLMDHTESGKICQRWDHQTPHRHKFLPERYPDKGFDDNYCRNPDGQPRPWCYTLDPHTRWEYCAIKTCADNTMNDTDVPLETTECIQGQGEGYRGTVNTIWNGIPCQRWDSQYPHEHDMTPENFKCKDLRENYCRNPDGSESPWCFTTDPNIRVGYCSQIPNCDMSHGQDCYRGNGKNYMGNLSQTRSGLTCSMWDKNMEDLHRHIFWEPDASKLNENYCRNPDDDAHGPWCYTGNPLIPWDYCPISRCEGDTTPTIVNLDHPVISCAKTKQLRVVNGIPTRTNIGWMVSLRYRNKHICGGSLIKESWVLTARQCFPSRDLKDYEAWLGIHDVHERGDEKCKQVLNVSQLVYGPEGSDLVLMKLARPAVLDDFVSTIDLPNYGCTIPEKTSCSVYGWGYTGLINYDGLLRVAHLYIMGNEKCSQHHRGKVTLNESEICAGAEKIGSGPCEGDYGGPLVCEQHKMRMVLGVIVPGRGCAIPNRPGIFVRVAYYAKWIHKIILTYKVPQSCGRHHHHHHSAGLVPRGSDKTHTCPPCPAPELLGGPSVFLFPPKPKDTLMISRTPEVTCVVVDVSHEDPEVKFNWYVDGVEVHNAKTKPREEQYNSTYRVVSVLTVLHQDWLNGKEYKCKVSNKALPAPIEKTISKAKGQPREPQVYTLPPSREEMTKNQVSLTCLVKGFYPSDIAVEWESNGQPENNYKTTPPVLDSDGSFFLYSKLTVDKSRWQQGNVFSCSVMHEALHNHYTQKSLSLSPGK
Chain of hHGF-Fc C561R (recombinant hHGF protein containing a cysteine to arginine substitution at position 561) (human) (chain, as listed by the source C561R C561R limits assumed): as the sequence (chain, as listed by the source G555E G555E limits assumed) above, with E501G, C507R counted along it

B1: anti-hHGF monoclonal antibody 2B8 (antibody, mouse IgG1, kappa)
heavy: QVQLQQPGAELVKPGTSVKLSCKASGYTFTTYWMHWVNQRPGQGLEWIGEINPTNGHTNYNEKFKSKATLTVDKSSSTAYMQLSSLTSEDSAVYYCARNYVGSIFDYWGQGTTLTVSSAKTTPPSVYPLAPGSAAQTNSMVTLGCLVKGYFPEPVTVTWNSGSLSSGVHTFPAVLQSDLYTLSSSVTVPSSTWPSETVTCNVAHPASSTKVDKKIVPRDCGCKPCICTVPEVSSVFIFPPKPKDVLTITLTPKVTCVVVDISKDDPEVQFSWFVDDVEVHTAQTQPREEQFNSTFRSVSELPIMHQDWLNGKEFKCRVNSAAFPAPIEKTISKTKGRPKAPQVYTIPPPKEQMAKDKVSLTCMITDFFPEDITVEWQWNGQPAENYKNTQPIMDTDGSYFVYSKLNVQKSNWEAGNTFTCSVLHEGLHNHHTEKSLSHSPGK
light: NIVMTQSPKSMSMSVGERVTLSCKASENVVSYVSWYQQKPAQSPKLLIYGASNRNTGVPDRFTGSGSATDFTLTISSVRAEDLADYHCGQSYNYPYTFGGGTRLEIKRADAAPTVSIFPPSSEQLTSGGASVVCFLNNFYPKDINVKWKIDGSERQNGVLNSWTDQDSKDSTYSMSSTLTLTKDEYERHNSYTCEATHKTSTSPIVKSFNRNEC
notes: Murine IgG1 kappa from hybridoma; also called murine 2B8; mouse 2B8
In the case of B1, the “IC50, neutralization of HGF stimulated BrdU incorporation in 4 MBr-5 cells” value in [1] amounted to 0.86 nM; in [9] it was 1.41 nM. The Kd (in general, the concentration at which binding is half-saturated) in [2] amounted to 0.0135 nM; in test [5] it was 0.0135 nM; in test [7] it was 0.0045 nM. Also, the off-rate (koff) (usually a measure of how fast the partners let go of each other) is 2.1e-05 s⁻¹ in [2], 2.1e-05 s⁻¹ in test [5] and 1.3e-05 s⁻¹ in test [7]. For the same molecule, the kon (commonly the second-order rate constant of association) came to 1.6e+06 M⁻¹ s⁻¹ in test [2], 1.6e+06 M⁻¹ s⁻¹ in test [5] and 2.8e+06 M⁻¹ s⁻¹ in test [7]. The binding result in test [3] and in test [4] was “binds” throughout. The “EC50, inhibition of HGF-stimulated c-Met phosphorylation in PC-3 cells, Average of Two Trials” value in test [6] was determined as 0.287 nM. Further, the IC50 (commonly the midpoint of a concentration-inhibition curve) in [8] was determined as 9.2 nM.

B2: HE2B8-4 (LRMR2B8HC + IgG1 constant region G1m(3) allotype allele 1, plus LRMR2B8LC + Kappa constant region Km(3) allotype allele 1) (antibody, V domains shown)
VH: QVQLVQPGAEVKKPGTSVKLSCKASGYTFTTYWMHWVRQAPGQGLEWIGEINPTNGHTNYNQKFQGRATLTVDKSTSTAYMELSSLRSEDTAVYYCARNYVGSIFDYWGQGTLLTVSS
VL: DIVMTQSPDSLAMSLGERVTLNCKASENVVSYVSWYQQKPGQSPKLLIYGASNRESGVPDRFSGSGSATDFTLTISSVQAEDVADYHCGQSYNYPYTFGQGTKLEIKR
notes: Human Engineered 2B8 variant, human IgG1 kappa, made in HEK293E cells
For B2, the “IC50, neutralization of HGF stimulated BrdU incorporation in 4 MBr-5 cells” value in test [1] came out at 0.58 nM. Further, in test [5], the Kd was 0.0056 nM, the off-rate (koff) came to 1.2e-05 s⁻¹ and the kon turned out to be 2e+06 M⁻¹ s⁻¹. Also, in [7], the dissociation constant (Kd) stood at 0.0033 nM, the dissociation rate constant (koff) was 1e-05 s⁻¹ and the kon worked out at 3.1e+06 M⁻¹ s⁻¹. Moreover, the IC50 in test [8] is 6.5 nM.
